# From paper PMC8896805, “Structural insights into ligand recognition, activation, and signaling of the α2A adrenergic receptor” (Science Advances, 2022)
# Legend:
# hybrid G protein Gαqs = hybrid G protein Gαqs (UniProt P50148)
# hybrid G protein Gαqi = hybrid G protein Gαqi (UniProt P50148)
# α2AAR F^7.39N mutation = test system: α2AAR F^7.39N mutation; parameters: method as in PMID 31801060; conditions: cited from earlier work
# α2AAR S^5.46A = conditions: cited from earlier work
compound,measurement,setting,value
chimeric receptor β2AR-α2A-TM5 (from UniProt P07550 1-220; P08913 233-244; P07550 233-413),"IP accumulation (IP-One HTRF) in HEK293T cotransfected with receptor and Gαqs; Gs coupling activity, increase against wild-type β2AR",hybrid G protein Gαqs,> 100 fold
same,"IP accumulation (IP-One HTRF) in HEK293T cotransfected with receptor and Gαqi; Gi coupling activity, increase against wild-type β2AR",hybrid G protein Gαqi,> 100 fold
chimeric receptor α2AAR-β2-TM5 (from UniProt P08913 1-232; P07550 221-232; P08913 245-465),"IP accumulation (IP-One HTRF) in HEK293T cotransfected with receptor and Gαqs; Gs activity, decrease against wild-type α2AAR",hybrid G protein Gαqs,10 fold
same,"IP accumulation (IP-One HTRF) in HEK293T cotransfected with receptor and Gαqi; Gi coupling activity, decrease against wild-type α2AAR",hybrid G protein Gαqi,3 fold
"NC[C@H](O)c1ccc(O)c(O)c1 [Norepi, norepinephrine]","activity of Norepi at F^7.39N mutant, in words",α2AAR F^7.39N mutation,completely abolishes the activity
CNC[C@H](O)c1ccc(O)c(O)c1 [epinephrine],"potency to inhibit forskolin-stimulated cAMP accumulation at S^5.46A, in words",α2AAR S^5.46A,markedly reduced the potency
